The test system of data set [1] is synapsin (isoaspartyl-converted, positive control).
The target in data set [2] is native recombinant HuD N-terminal fragment (amino acids 1-117, wildtype, day 0, not converted) (UniProt P26378).
Data set [3] addresses HuD RRM1 lacking the N-terminal 36 amino acids (37-117 aa) (UniProt P26378).
The target of data set [4] is in vitro isoaspartyl-converted recombinant HuD N-terminal fragment (amino acids 1-117, wildtype) (UniProt P26378).
In data set [5] the target is HuD N-terminal fragment (1-117) in which the 8 N and D residues in the 36-amino acid flexible region were mutated to Q and E (UniProt P26378).
Sequence of HuD N-terminal fragment (1-117) in which the 8 N and D residues in the 36-amino acid flexible region were mutated to Q and E (P26378 other isoform, or with tags, fused parts or gaps, change not shown): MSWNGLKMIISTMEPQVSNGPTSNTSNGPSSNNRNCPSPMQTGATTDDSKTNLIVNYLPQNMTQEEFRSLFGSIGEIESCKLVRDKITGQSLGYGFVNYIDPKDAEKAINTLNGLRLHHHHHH

The text below walks through data of patent US20150232539.

Sequence of in vitro isoaspartyl-converted recombinant HuD N-terminal fragment (amino acids 1-117, wildtype) (P26378 whole entry, looked up, the tested form may be a part): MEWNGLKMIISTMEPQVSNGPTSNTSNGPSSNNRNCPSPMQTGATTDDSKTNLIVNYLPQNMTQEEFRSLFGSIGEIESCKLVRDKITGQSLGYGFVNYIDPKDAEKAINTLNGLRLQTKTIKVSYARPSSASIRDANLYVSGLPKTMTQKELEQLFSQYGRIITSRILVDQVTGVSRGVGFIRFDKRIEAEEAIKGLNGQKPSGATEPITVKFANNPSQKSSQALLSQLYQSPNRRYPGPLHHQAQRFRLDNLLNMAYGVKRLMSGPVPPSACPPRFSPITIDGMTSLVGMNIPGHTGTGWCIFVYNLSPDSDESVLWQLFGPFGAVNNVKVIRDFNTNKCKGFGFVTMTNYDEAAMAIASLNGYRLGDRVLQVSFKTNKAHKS
Sequence of native recombinant HuD N-terminal fragment (amino acids 1-117, wildtype, day 0, not converted) (P26378 other isoform, or with tags, fused parts or gaps): as the sequence (P26378 other isoform, or with tags, fused parts or gaps, change not shown) above
Sequence of HuD RRM1 lacking the N-terminal 36 amino acids (37-117 aa) (P26378 37-117): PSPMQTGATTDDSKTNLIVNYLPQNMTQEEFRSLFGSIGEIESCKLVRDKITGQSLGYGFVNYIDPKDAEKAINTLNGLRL

Take “recombinant rat protein-L-isoaspartyl methyltransferase (PIMT)”: the “PIMT-catalyzed [3H]-methyl incorporation from [3H]-AdoMet (autoradiography)” value in data set [1] was “Isoaspartyl-converted synapsin and HuD were visualized by methylation with [3H]-AdoMet by PIMT”; in data set [2], “HuD exhibited no reactivity at Day 0”; in data set [4] it was “followed by a strong increase in PIMT-mediated methylation over the seven day incubation”. For the same substance, the “on-blot methylation with [3H]-AdoMet by PIMT” value was “the RRM1 domain alone shows no signal above background when incubated under isoaspartylation conditions and then subjected to PIMT modification” in data set [3]; “Only the Day 3 and Day 7 samples from the original 117 amino acid fragment show above background labeling” in data set [5].
